What was measured:
[1] = molecular target: Cyno Monocytes / Cyno Neutrophils (Macaca fascicularis); experiment: flow cytometry, cyno whole blood, neutrophils
[2] = molecular target: Rhesus Monocytes / Rhesus Neutrophils (Macaca mulatta); experiment: flow cytometry, rhesus whole blood, monocytes
[3] = molecular target: human LILRB2 expressed on cells (human) (UniProt Q8N423); experiment: flow cytometry, human whole blood, neutrophils
[4] = molecular target: Rhesus Monocytes / Rhesus Neutrophils (Macaca mulatta); experiment: flow cytometry, rhesus whole blood, neutrophils
[5] = molecular target: human LILRA4 (human) (UniProt P59901); experiment: flow cytometry, LILRA4 CHOs
Sequence of human LILRA4 (human) (P59901 other isoform, or with tags, fused parts or gaps limits assumed): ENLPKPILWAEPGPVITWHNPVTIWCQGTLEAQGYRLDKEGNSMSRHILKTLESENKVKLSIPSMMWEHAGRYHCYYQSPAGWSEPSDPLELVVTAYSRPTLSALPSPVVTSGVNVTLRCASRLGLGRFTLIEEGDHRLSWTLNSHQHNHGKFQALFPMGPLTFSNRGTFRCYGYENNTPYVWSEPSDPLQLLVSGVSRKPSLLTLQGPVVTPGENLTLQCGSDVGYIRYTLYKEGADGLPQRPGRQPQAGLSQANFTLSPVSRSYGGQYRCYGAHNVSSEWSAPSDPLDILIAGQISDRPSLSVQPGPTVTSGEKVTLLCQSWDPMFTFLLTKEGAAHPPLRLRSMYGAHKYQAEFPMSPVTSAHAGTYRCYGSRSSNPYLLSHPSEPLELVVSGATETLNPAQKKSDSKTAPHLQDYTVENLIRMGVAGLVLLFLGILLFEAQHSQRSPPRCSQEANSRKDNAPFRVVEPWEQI

[6] = molecular target: human LILRB2 expressed on cells (human) (UniProt Q8N423); experiment: flow cytometry, human whole blood, monocytes
[7] = molecular target: human LILRA1 (human) (UniProt O75019); experiment: flow cytometry, LILRA1 CHOs
Sequence of human LILRA1 (human) (O75019 17-489 limits assumed): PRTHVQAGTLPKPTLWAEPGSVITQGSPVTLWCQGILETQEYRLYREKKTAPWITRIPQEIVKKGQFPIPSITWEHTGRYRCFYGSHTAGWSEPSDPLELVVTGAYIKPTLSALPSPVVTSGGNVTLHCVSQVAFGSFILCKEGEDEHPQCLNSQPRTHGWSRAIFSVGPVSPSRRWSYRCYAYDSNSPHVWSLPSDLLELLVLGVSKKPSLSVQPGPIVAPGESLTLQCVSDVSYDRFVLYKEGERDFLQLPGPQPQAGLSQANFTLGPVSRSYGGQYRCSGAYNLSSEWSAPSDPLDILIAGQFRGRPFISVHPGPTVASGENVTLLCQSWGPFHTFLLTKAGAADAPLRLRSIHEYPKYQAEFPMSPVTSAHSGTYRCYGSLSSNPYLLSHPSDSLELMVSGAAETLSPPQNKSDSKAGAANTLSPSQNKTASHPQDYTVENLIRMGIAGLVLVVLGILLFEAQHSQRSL

[8] = molecular target: Cyno Monocytes / Cyno Neutrophils (Macaca fascicularis); experiment: flow cytometry, cyno whole blood, monocytes

Sequence of human LILRB2 expressed on cells (human) (Q8N423 other isoform, or with tags, fused parts or gaps limits assumed): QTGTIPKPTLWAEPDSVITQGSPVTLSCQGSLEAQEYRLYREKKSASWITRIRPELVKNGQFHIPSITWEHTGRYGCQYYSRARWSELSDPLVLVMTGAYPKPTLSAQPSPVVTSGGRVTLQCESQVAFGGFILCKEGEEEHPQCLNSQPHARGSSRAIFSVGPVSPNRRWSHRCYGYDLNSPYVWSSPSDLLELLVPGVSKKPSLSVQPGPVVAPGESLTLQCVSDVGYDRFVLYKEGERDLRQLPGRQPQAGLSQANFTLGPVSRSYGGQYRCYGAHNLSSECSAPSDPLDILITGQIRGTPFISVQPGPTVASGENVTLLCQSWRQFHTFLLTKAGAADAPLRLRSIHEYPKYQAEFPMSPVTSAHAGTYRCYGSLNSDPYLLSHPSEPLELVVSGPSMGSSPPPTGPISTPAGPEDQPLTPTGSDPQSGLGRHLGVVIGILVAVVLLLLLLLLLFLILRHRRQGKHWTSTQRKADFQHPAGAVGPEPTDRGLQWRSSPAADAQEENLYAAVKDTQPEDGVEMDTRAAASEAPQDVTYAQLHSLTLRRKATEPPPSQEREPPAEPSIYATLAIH

isotype control mAb (antibody)
1: Cyno Neutrophils binding (fold over iso) (fold over iso) [1] | Rhesus Monocytes binding (fold over iso) (fold over iso) [2] | Human Neutrophils binding (fold over iso) (fold over iso) [3] | Rhesus Neutrophils binding (fold over iso) (fold over iso) [4] | binding (fold over iso) (fold over iso) [5] | Human Monocytes binding (fold over iso) (fold over iso) [6] | binding (fold over iso) (fold over iso) [7] | Cyno Monocytes binding (fold over iso) (fold over iso) [8]

Source: patent US20200339690A1
